From patent US20250269003A1, “NANO-ENHANCED VACCINE” (University of Virginia Patent Foundation, priority 2022, published 2025)

Assays:
[1] = Ideal pH range for peptide stability and dissolution; assay type: physicochemical; settings: pH range required for stability and dissolution of the peptide
Description: (§1) Encapsulation of Melanoma Peptides within Nanoliposomes. The six melanoma peptides that induce melanoma-reactive CD4^+ T cells in patients as well as their protein epitope and ideal pH range for solubility are provided in Table 1. A neutral formulation was initially chosen to encapsulate all peptides and then, through an iterative process, modified formulations to optimize encapsulation efficiencies for several of the peptides. Through this process, three different nanoliposome formulations (neutral, cationic, and anionic) suitable for distinct peptides were identified. However, all of the presently disclosed formulations contained the same base lipid components, including 1,2-distearoyl-sn-glycero-3-phosphocholine (DSPC); 1,2-Dioleoyl-sn-glycero-3-phosphoethanolamine (DOPE); 1,2-distearoyl-sn-glycero-3-phosphoethanolamine-N-[methoxy(polyethylene glycol)-2000] (ammonium salt) (PEG2000PE); KDO2; cholesterol; and a fluorophore (either rhodamine or 1,1′-Dioctadecyl-3,3,3′,3′-Tetramethylindodicarbocyanine, 4-Chlorobenzenesulfonate Salt (DiD)). Each formulation contained DSPC and DOPE at a 2.14:1 molar ratio to form a stable, spherical nanoparticle. In addition, cholesterol at a 30 molar percent was incorporated to increase rigidity and to reduce leakiness. PEG(2000)-PE at 2.5 molar percent was incorporated for biological stability, KDO2 was added to all formulations at 0.1 molar percent, and a fluorescent probe (rhodamine or DiD) was added at 0.2 molar percent for subsequent biodistribution imaging studies. Keeping the molar ratios of these key components constant, dihexadecyl phosphate (DHP) was incorporated at 10 molar percent for the anionic formulation and positively charged lipid 1,2-dioleoyl-3-trimethylammonium-propane (chloride salt) (DOTAP) at 7 molar percent for the cationic formulation. The lipid mixtures were then dried down in a nitrogen blower for roughly 2 hours until all of the chloroform was evaporated. Then, the peptide solutions, (or 1×PBS for the “ghost” formulation), was added to the dried down lipids, the tubes were then vortexed and placed in a heat shaker at 60° C. for 2 hours, followed by sonication in a 60° C. sonic bath for roughly five minutes. After sonication, the liposomes were extruded through a 100-nanometer pore membrane eleven times to create uniformly sized liposomes. The extruded liposomes were subsequently run through a Sepharose gel bead column to separate the liposomal drugs from the free drug. The solution was analyzed using Dynamic Light Scattering (DLS; polydispersity and average hydrodynamic diameter of particles in solution), and mass spectrometry.
(§2) To further ensure optimal encapsulation efficiency of the MHPs, distinct dissolution buffers tailored to each peptide's optimal pH range and previously optimized for in vivo injection of the free peptides into patients enrolled in earlier clinical studies were utilized. Specifically, for the neutral peptide formulations, 1.33 mg/ml sodium bicarbonate (NaHCO3) in a 1:2 solution of lactated Ringers solution (LR) and water respectively (B1); for the cationic formulation, 5 mg/ml NaHCO3 in water (B2); for the WNR anionic formulation, 1 mg/ml NaHCO3 in water (B3); and for the TSYVKVLHHMVKISG (TSY; SEQ ID NO: 1) anionic formulation, 1:9 ratio of 2-(N-morpholino) […] (MES) buffer and water (B4).

[2] = Peptide encapsulation within nanoliposomes (mass spectrometry); assay type: physicochemical; settings: for Original mass encapsulation: neutral formulation and 1X PBS; for Optimized mass encapsulation: new liposome formulation (charge and buffer B1-B4) keeping optimal pH, full vaccine, n = 3 separate experiments in triplicate; for Encap. Efficiency: optimized formulation, based upon initial 500 μg/ml peptide concentration; for Encap. improvement: optimized versus original mass encapsulation
Description: as §1, §2
Each of the six Melanoma Helper Peptides (6MHP) were initially incorporated in a neutral liposome formulation containing: (DSPC); (DOPE); (PEG2000PE); KDO2; cholesterol; and a fluorophore in ratios of 4.60:2.14:0.25:0.01:3.00:0.02 respectively (see Table 2). After quantifying initial encapsulation masses, an iterative approach was utilized to improve encapsulation via modifying the charge and lipid ratios of the liposomal formulation as well as the buffer for the peptide. The proportional improvements in encapsulation as well as the encapsulation efficiencies are depicted in Table 3.

SIN lymphocytes = test: Lymphocyte viability, live-dead marker and flow cytometry; assay type: cell-based, human; settings: patient SIN samples; free TSY compared with nanoliposomal KDO2/TSY
Description: (§3) Ex Vivo Lymphocyte Stimulation using Immunogenic TSY encapsulated nanoliposomes. Freshly obtained (cryopreserved) peripheral blood mononuclear cells (PBMC) and lymphocytes from the sentinel immunized nodes (SIN) of two patient donors (under IRB protocols, clinical trial Mel41 (NCT00089219; IRB #10464; Slingluff et al., 2008b) were utilized to assess CD4^+ T cell proliferation after treatment with the anionic TSY (MAGE-3281-295 peptide; Table 1) MIP-KDO2 nanoliposome. Firstly, a cell viability study was performed using a live-dead marker and flow cytometry to ensure that cell viability was not impacted by the presence of either the peptides or the liposomes. In this study, SIN lymphocytes from the two patient donors (SIN1 and SIN2) were treated with a variety of free peptides and liposome combinations. […] Cells were acquired on a FACSCANTO™ II flow cytometer (BD Biosciences) maintained by the Carter Immunology Center at the University of Virginia and the data analyzed using FlowJo software (version 10; BD Biosciences).
(§4) Using blood samples from melanoma patients who had previously been vaccinated with a 6MHP vaccine on the Mel41 trial and had developed a robust CD4^+ T cell immune response to the TSY antigen (Slingluff et al., 2008b), lymphocyte viability and CD4^+ T cell proliferation to the TSY nano-formulations ex vivo were analyzed. […]

[3] = tested on: CD4^+ T cells from sentinel immunized nodes (SIN1, SIN2); test: CFSE dye-dilution CD4+ T cell proliferation assay, sentinel immunized node cells; assay type: cell-based, human; settings: SIN1 and SIN2 donor cells, 2 μg/mL peptide, 5 days
Description: as §3, §4

| Sequence | Ideal pH range [1] | Original mass encapsulation [2] [µg/mL] | Optimized mass encapsulation [2] [µg/mL] | Encap. Efficiency [2] [%] | Encap. improvement [2] [X] | cell viability (SIN lymphocytes) | CD4^+ T cell proliferation (CFSE dilution) [3] |
| --- | --- | --- | --- | --- | --- | --- | --- |
| LLKYRAREPVTKAE (listed as Homo sapiens) [melanoma helper peptide, amino acids 121-134 of human MAGE-1,2,3,6] | 6.0-8.0 | 34.56 ± 0.69 | 57.26 ± 14.39 | 11.45 | 1.66 | – | – |
| RNGYRALMDKSLHVGTQCALTRR (listed as Homo sapiens) [melanoma helper peptide, amino acids 51-73 of human Melan-A/MART-1] | 6.0-8.0 | 22.37 ± 0.30 | 19.18 ± 6.36 | 3.29 | 0.85 | – | – |
| WNRQLYPEWTEAQRLD | 7.0-8.0 | 4.81 ± 0.09 | 7.64 ± 0.99 | 1.53 | 1.59 | – | – |
| FLLHHAFVDSIFEQWLQRHRP (listed as Homo sapiens) [melanoma helper peptide, amino acids 386-406 of human tyrosinase] | 6.0-8.0 | 28.15 ± 2.05 | 58.61 ± 4.96 | 11.72 | 2.08 | – | – |
| TSYVKVLHHMVKISG (listed as Homo sapiens) [melanoma helper peptide, amino acids 281-295 of human MAGE-3] | 5.0-5.5 | 0.17 ± 0.001 | 141.35 ± 2.18 | 28.27 | 831 | no discernable differences in cell viability | expected CD4^+ T cell proliferation response was observed |
| AQNILLSNAPLGPQFP (listed as Homo sapiens) [melanoma helper peptide, amino acids 56-70 of human tyrosinase] | 8.5-9.0 | 0.02 ± 0.005 | 6.25 ± 1.13 | 1.25 | 312 | – | – |
